Here are results for two molecules from publication PMC2965237.

What all share (experiment): EMSA
In data set [1] the target is RdgC E218R (Escherichia coli, UniProt P36767 1-303, E218R).
Data set [2] has as its target RdgC H222A (Escherichia coli, UniProt P36767 1-303, H222A).
The target in data set [3] is RdgC R118A (Escherichia coli, UniProt P36767 1-303, R118A).
For data set [4], the target named is RdgC R118C (Escherichia coli, UniProt P36767 1-303, R118C).
Data set [5] deals with RdgC F120T K227A (Escherichia coli, UniProt P36767 1-303, F120T;K227A).
Data set [6] has as its target RdgC Δfinger R118C (Escherichia coli, UniProt P36767 1-303, P76G;L116T;R118C;del77-115).

B1: RGL13/17 (dsDNA)
DNA 1: GACGCTGCCGAATTCTGGCTTGCTAGGACATCTTTGCCCACGTTGACCC
DNA 2: GGGTCAACGTGGGCAAAGATGTCCTAGCAAGCCAGAATTCGGCAGCGTC
In the case of B1, the Kd is 22 nM in data set [1], 12 nM in data set [2], 6 nM in data set [3] and 6 nM in data set [4].

B2: RGL13 (ssDNA)
DNA: GACGCTGCCGAATTCTGGCTTGCTAGGACATCTTTGCCCACGTTGACCC
Take B2: the Kd in data set [2] is 5 nM; in data set [3], 6 nM; in data set [4] it was 6 nM; in data set [6] it was around 6000 nM. Besides, in data set [5], the binding result is “no binding”.
